According to paper PMC3634016 (PLoS ONE, 2013):

Target: T1, Wild type rat calmodulin (CaM) (rat, UniProt P0DP29 1-149)
T1 construct: calmodulin, rat, wild type; also called Ca^2+-CaM; calcium-calmodulin; source: expressed from pET9d (Novagen), purified (Phenyl Sepharose, gel filtration)
Assay: ITC; peptide titrated into Ca^2+-CaM alone; 25°C; 25 mM Tris-Cl pH 7.5, 75 mM NaCl, 0.5 mM CaCl2; one-set-of-sites model
Conditions: both partners purified

B1: mammalian NSCaTE_(Cav1.2) peptide (peptide)
peptide: SWQAAIDAARQAKLMGS
notes: 17 mer with the N-terminal NSCaTE motif of the mammalian L-type calcium channel Cav1.2; also called Cav1.2 NSCaTE; source: synthetic peptide (CanPeptide Inc, >95% purity)
B1 was tested, and the “stoichiometry N” value was 2.
